According to a protein production outcome set (Wang et al. 2014):

Test: label from the status in PepcDB records

Question: Which protein production does the source give for “MAMRELSQLNRDSDGDEEVWVKHYSSNHQILLVGEGDFSFSHSLATLFGSASNICASSLDSYDVVVRKYKKARSNLKTLKRLGALLLHGVDATTLHFHPDLRYRRFDRVIFNFPHAGFHGRESDSSLIRKHRELVFGFFNGASRLLRANGEVHVSHKNKAPFSEWNLEELASRCFLVLIQRVAFEKNNYPGYENKRGDGRRCDQPFLLGECSTFKFRFSRVAKELYAEKVRSREVKERESMYPEAILNKQPVSFDHRYRLQTEFEAIAGTITLGKSKILWLSQEKGHLHWIFVTTKNVDVYSSKIPESPERHRLLCQDFPVQASQEPLSEYSNRWSGVSREIYNWEVRRMSTSTSFPHPYTGESQERSLSRQSNLITHPPQHW” here?
Answer: failed

Question: Which protein production does the source give for “MRWITRPGWPGNLLALAAGGLTTLALAPFDFWPLVLVSVAMFYLGLRELSPRQALARGWCYGFGLYGAGTSWIYVSIHTYGGASALLAGLLMLLFIAAIALFFALPAWVWARWLRRNEAPLADSLAFAALWLWQEAFRGWFLTGFPWLYSGYSQLDAPLAGLAPVGGVWLISFALGLTAALLCNLHRLRARKSFLAMGVLLLLAPWVAGLALKDHAWTSPSGPPLKVAAMQGNIEQSMKWDPQKLNDQLALYRDMTFRSQQADLIVWPETAVPVLKESAEGYLSMMGKFAADRGAALITGVPVREPTGRGEYSYYNGITVTGQGDGTYFKQKLVPFGEYVPLQDLLRGLISFFDLPMSDFARGPNDQALLQAKGYHIAPFICYEVVYPEFAAGLSAQSDLLLTVSNDTWFGTSIGPLQHLQMAQMRALEAGRWMIRATNNGVTALIDPFGRITVQIPQFERGVLYGEVVPMHELTPYLHWRSWPLAIVCLLLFGWALLAARISKTV” here?
Answer: failed

Question: For “MVRVLSAGPELAFRSGDVVAPARTHPLVAAAPSCPMTAAAPRERADRWPRREDLFAIAYYLAAAAVLAWAGYAAWRIGVVLAGGALQQVGVRSCRQRDASRCVNATFDRIALYVVLGQASFFLTTALAAAVTGGEQSPLILPFLGSYFVAVSVVGDRVATRGLLAATAFGAAVLALLPDAVAGPALPALQRGVLTVVSVLGVGALLAPAHAETRRKRDQVARARSEMVSDALSRAQGLEQVGAKVAHELKNPLTGVKALVQLGLRNPAEAASHERLEVVDREVTRMQEIIQNYLSFNRPLQSVNPRQVALGPLVSDTMLVLSARADEARVRLYARGDASLEADPRRLKEALLNLVANAIEATPAGGEVVVEARELSGDEVELVVRDTGRGMPPETLRRIGTPFFTTRDDGTGLGVVLARAVIVQHGGTLRYESEPGSGTKVLVTLPRAAKRSGDVARAAGG”, which protein production is on record?
Answer: failed

Question: For “MLIINKLNHAQKQLEKLNFIPQQADKVDFLASSSEFKARILQLINTAKSRIYLTALYFEQDEAGQQILAALYQAKLANPALDIQILVDWHRAQRGRIGEKTTSSNADWYANMKQQYNLPPEQEIAVWGVPINGREIFGVLHLKGFIFDDTILYSGASINNVYLQQFDRYRYDRYHTLENKVLADSLVTFLQQHILTDHAVNRLDNMQRPVTANIRPAIKAFRKQLTKQQYQFAEQPESNGLMLSPIAGLGRKNQLNKTIEALFYKTQNKLTICTPYFNFPRSLITRIKWLLENGKQVEIIAGDKKANDFYTPPDKKFTMAAALPYLYEKNLRAFAKRFDSYIQNKLLTIRLWKDGENTYHLKGLWVDNRYILLTGNNLNPRAWGLDAENGILLDDPKAELAEKAALELTQIRTFTQELSHYSDLETIKDYPLEVQKLLKKFGRVKLDKIIKMLLLEHHHHHH”, which protein production is on record?
Answer: failed

Question: With “SNTPSAEADWSPGLELHPDYKTWGPEQVCSFLRRGGFEEPVLLKNIRENEITGALLPCLDESRFENLGVSSLGERKKLLSYIQRLVQIHVDTMKVI” as the sequence, how does the protein production read?
Answer: not failed

Question: With “MTVSDPAGPRCFCRDCLVDLDMGVRRCSACGSPRLVRHRALSSLTIAHIDCDAFYATVEKRDNPDIADKPVIIGGGKRGVVSAACYIARTYGVRSAMPMFKALDACPHAIVIRPDMAKYVRVGREVRQAMQALTPLVEPLSIDEAFLDLSGTERVHGMIPAKVLARFARNIERDIGISVSVGLSCNKFLAKIASDLDKPRGFAALDQEEARLMLASRPVGFIFGVGPATQERLVQRGFRIIADLQKADEIEMMRQFPSDGRRLWRLARGIDDRRVEPDRGAKTISSETTFETDIRDFATLEKILWRLCEKTSSRLKSSELAGSTVTLKLKTADFRQRTRSQSIAAPTQLAAKIFSICREMLAKEIDGTAFRLMGAGVSALREGSPADDTDMLDRRAAHAERAVDSLRKKFGNSAVIRGIAYDGPETGQQE” as the sequence, how does the protein production read?
Answer: failed

Question: With “KFGELREISGNQYVNEVTNAEKDLWVVIHLYRSSVPMCLVVNQHLSVLARKFPETKFVKAIVNSCIEHYHDNCLPTIFVYKNGQIEGKFIGIIECGGINLKLEELEWKLSEVGAIQSDLEEN” as the sequence, how does the protein production read?
Answer: not failed

Question: For “MNIQRETSGHIAAIVTILIWGTTFISTKVLLADFSPMEILFYRFLMGFIALILVRPNMIPFRNWRQELLFAGAGLFGVTLYFLLENIALTYTYASNVGMIVSIIPMITAVLAHFLLEGEKLRLTFLIGFISALIGLLLITFNGNVVLRLNPLGDIMAAGAALVFGGYSIFMKKLSAYEYHIIELTQRVFLYGLLFMVPALFLFDFHFDLSRFSSASNILNMLFLGIGASALCFATWNYSVGVLGAVKSSAYIYMVPVITIAASVLILHENMTWIALLGGALTLLGLYISELKPKAKLLENGCKMDA”, which protein production is on record?
Answer: failed

Question: For “MTNDFKKEKKEDYFVNLKAISTEVLQEKVQDNAWVIVDTRLNDAYNGWKLDGVKRGGHIKGAVDFSANWLSVYSDRKDEVLEQALKTKRIDLDKNIVLYDANGKDALVVADYLSKKGYKYLYKYDIKQWADDENLPMERYKNYQMIVPLEHHHHHH”, which protein production is on record?
Answer: not failed

Question: Which protein production does the source give for “MKKRILFVSAIAIQCMMTSMALANDITSQQTAENIPFEKNQLSVRLNGEQYRSAFQIDLSDPNLILTIDTDLIPEEDIDALLPELNDSEEAQVSAFNEPKSLALRIEAKEKAANGDFVGALALLNEAEALTENPAKVLSMKGSVHYKLNQVELAIVSWKKALELDPSLTEVSDIIQWLEK” here?
Answer: failed

Question: With “MEFILEPWHWFVLGILLMLSELVITAFAALWFGIAAIMVSVLLWLFPMMGITTQVIMWIILSVLCTLLWFKFIKPLSIDKTKAGLSREATIGQIGMVIRVGLSHEQIVVRFALPVLGADEWNCRSLAPVEVGDRVCVVDIMGNDLVVQPHIPINNK” as the sequence, how does the protein production read?
Answer: failed

Question: Which protein production does the source give for “MAKKVAVLAVNPVNGCGLFQYLEAFFENGISYKVFAVSDTKEIKTNSGMVLIVDDVIANLKGHEDEFDALVFSCGDAVPVFQQYANQPYNVDLMEVIKTFGEKGKMMIGHCAGAMMFDFTGITKGKKVAVHPLAKPAIQNGIATDEKSEIDGNFFTAQDENTIWTMLPKVIEALKLEHHHHHH” here?
Answer: not failed

Question: With “MPHVRPSNAWRFLRTLWLGAWLAGWALLAQAQQLAPVPEFGARVVDQSGVLDAAQRQRLEAQLAALEQRKGAQVAVLIVPSTAPETIEQYATRAFEKWKIGRDKVDDGVLLLMASDDRALRIEVGYGLEGAIPDSAAGRIINEYIVPRLRAGDWPGAVQAGVTALERRIEGEELPPPAASGRDEGSRLAGIRGWLGENGIAALVVLLILPGPIAAALAGVGVAIYMQSISAGLAMALLVLGIKVIIKALPSGGGGGGGGGGGSGGGGFGGWRGGSRGGSGSGGFGGFRGGGGGRSGGGGASGRWLEHHHHHH” as the sequence, how does the protein production read?
Answer: failed

Question: For “MADGATAVRRGLSGATRLSARFTADAETGTRQGMQALPTSRRLCASLRSLPERALAMLPAVVLALLPVIAMLLALAPGNARVAEDCALRVEGQARHADDQRIMSTVRALAQALGEVAQATPPDEREAKLIRSISPVRYGEGPWDYVILSRGTVHLYTPGMEGAAGVDFANATDARGVPFVQEMQSRAVLGGGFTEWTARRADGSTETRRVYSLVVPGTEYWLGAWTTPDGATTAKNEARNGVLITADHAAHRAALWGIMAGLPAALVLHRLLTASQRLRQEKDRR”, which protein production is on record?
Answer: failed

Question: Which protein production does the source give for “MSLNGSRRIPQPIRWAMVGGGSQSQIGYIHRCAALRDNTFVLVAGAFDIDPIRGSAFGEQLGVDSERCYADYLSMFEQEARRADGIQAVSIATPNGTHYSITKAALEAGLHVVCEKPLCFTVEQAENLRELSHKHNRIVGVTYGYAGHQLIEQAREMIAAGELGDVRMVHMQFAHGFHSAPVEAQSQATQWRVDPRQAGPSYVLGDVGTHPLYLSEVMLPDLKIKRLMCSRQSFVASRAPLEDNAYTLMEYEGGAMGMVWSSAVNAGSMHGQKIRVIGSRASLEWWDERPNQLSFEVQGQPAQILERGMGYLHPNALIDDRIGGGHPEGLFEAWANLYYRFALAMDATDRSDTQALSAVRYPGIDAGVEGVRWVERCVLSADNDSIWVAYEGHHHHHH” here?
Answer: not failed

Question: With “SAESWLRLSGAGPAEEAGPEGGLEEPDALDDSLTSLQWLQEFSILNAKAPALPPGGTDPHGYHQVPGSAAPGSPLAADPACLGQPHTPGKPTSSCTSRSAPPGLQAPPPDDVDYATNPHVKPPYSYATLICMAMQASKATKITLSAIYKWITDNFCYFRHADPTWQNSIRHNLSLNKCFIKVPREKDEPGKGGFWRIDPQYAERLLSGAFKKRRLPPVHIHPAFARQAAQEPSAVPRAGPLTVNTEAQQLLREFEEATGEAGWGAGEGRLGHKRKQPLPKRVAKVPRPPSTLLPTPEEQGELEPLKGNFDWEAIFDAGTLGGELGALEALELSPPLSPASHVDVDLTIHGRHIDCPATWGPSVEQAADSLDFDETFLATSFLQHPWDESGSGCLPPEPLFEAGDATLASDLQDWASVGAFL” as the sequence, how does the protein production read?
Answer: failed

Question: For “MRVSCVYATASRWGGPPVASEVRGDAAISTTPDAAPGLAARRRRILFVAEAVTLAHVVRPFALAQSLDPSRYEVHFACDPRYNQLLGPLPFRHHAIHTIPSERFFGNLTQGRFYAMRTLRKYVEADLRVLDEIAPDLVVGDLRISLSVSARLAGIPYIAIANAYWSPYAQRRFPLPDVIWTRLFGVRLVKLLYRLERPLLFALQCMPLNWVRRRHGLSSLGWNLCRIFTDGDHTLYADVPELMPTYDLPANHEYLGPVLWSPAGKPPTWWDSLPTDRPIVYATLGTSGGRNLLQLVLNALAELPVTVIAATAGRSDLKTVPANAFVADYLPGEAAAARSAVVVCNGGSLTTQQALVAGVPVIGVAGNLDQHLNMEAVERAGAGVLLRTERLKSQRVAGAVMQVISRSEYRQAAARLADAFGRDRVGFPQHVENALRLMPENRPRTWLAS”, which protein production is on record?
Answer: failed

Question: For “MMYFGIIPLILFIIFLISYLKDPRKIINGFLFNAFICFFLLFCVIVSLNSDSDVLRYIIFLPFLALLIMLPFGIVALMFGLFLNARILMKREGRRFTNCLTLLAALGMLFFMLLPIINPASLVSSHLEPIFAAISLISIYFFIHLSNFLSAYFLYQFNRPRRNQDFIIVLGSGLINDKVPPLLASRINKAIDFYWKQAAVNTPPTIIFSGGQGPDEGLPEAEAMQNYAVEKGIPIEHTVQENRSVNTYQNMLFSKEIMDSLKPEGKYKSIFTTNNFHLFRAGIYARQAGLNSQGIGSKTAFYYWPNAMIREYVAIVVMGRKRHMKICGTILGFAVFVSILSFIFS”, which protein production is on record?
Answer: failed

Question: For “MAKVTVILTSYNKPNTVGAAIESVLSQSFQDWELWIMDDASNEETQQVIDSYMLYPNVYYYNSQVKDEERHKSTRYATLINEAISRSTGDYLCYLTDDNYYLPERLQKMVQYLERYPSVDVVYSKQLVRTVDNQLITQAERIRPTKGTIRYAENIVDHCSVMHRRSLAEKVYETYGSYWNDDPICWHNGDAFFWNRLSAFALFYPINEVLDVCLKSPTSFQALNAFLPEYLPSGTLVKGLGADVYLIEDNHRRAITPTMFQQLHYREENVVHIPDPVLFKYKEGPAIDEHIWEQGKLFPNHRLIKASQEPHIYYVENHRKRHILTHKEFRLYKFRASEVVEVSRSFLDSIPTGPPISAHVNNQHPLPEGLLVRCGFKFYLSGNNRLYPIKSRVMKKLNLQMKNAVFLDSRAIGRYEQGETIEWKTNKCQPRFNTSSLEHHHHHH”, which protein production is on record?
Answer: failed

Question: For “RSSYVLPDKFVLSVPIQGNLDEVHSLSSSLPLLSSAEPLSFQDLLFLFDHAAGDKRIGSILLEIGGVHANPAKLTELRYSIEKMKASGKKVVAFLRSAEDSDYLLATACDSIVVEEGGFLMLDGLKAETLFYTKSLNKIGITFQASQWKTYKSGIEPFVRTGASSEYLEQIGELLDDVYDDYLGYASKRRGISRDSLQAVIDNMALLSAKKAVQLGLADGIASSWA”, which protein production is on record?
Answer: failed
